According to patent publication US20260184777A1 (BEIJING SUNGEN BIOMEDICAL TECHNOLOGY, published 2026):
Where a chain is given by its changes, count along the chain named.

T1: human S100A8/A9 heterodimeric antigen, His-tagged (hS100A8/A9-His) (human, UniProt P05109 1-93; P06702 1-114)
T1 sequence 1: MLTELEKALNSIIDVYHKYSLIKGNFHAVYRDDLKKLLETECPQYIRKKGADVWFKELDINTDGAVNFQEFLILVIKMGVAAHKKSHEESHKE
T1 sequence 2: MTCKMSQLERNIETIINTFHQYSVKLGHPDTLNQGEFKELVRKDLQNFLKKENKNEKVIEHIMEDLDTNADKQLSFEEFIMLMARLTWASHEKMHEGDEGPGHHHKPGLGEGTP

T2: S100A1 (human, UniProt P23297 1-94)
T2 sequence (looked up): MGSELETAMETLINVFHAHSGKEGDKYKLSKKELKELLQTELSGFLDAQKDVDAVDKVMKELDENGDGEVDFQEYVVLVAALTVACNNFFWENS

B1: CM-38 (antibody, human IgG4 S228P, lambda, V domains shown)
VH: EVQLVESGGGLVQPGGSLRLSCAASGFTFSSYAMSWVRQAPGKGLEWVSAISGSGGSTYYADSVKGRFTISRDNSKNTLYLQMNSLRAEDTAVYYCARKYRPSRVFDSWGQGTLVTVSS
VL: SYELTQPPSVSVAPGQTARITCSGDALGDKYASWYQQKPGQAPVLVIYEDSKRPSGIPERFSGSNSGNTATLTISGTQAEDEADYYCQSNDIDSVWVFGGGTKLTVLG
B2: CM-28 (antibody, human IgG4 S228P, lambda, V domains shown)
VH: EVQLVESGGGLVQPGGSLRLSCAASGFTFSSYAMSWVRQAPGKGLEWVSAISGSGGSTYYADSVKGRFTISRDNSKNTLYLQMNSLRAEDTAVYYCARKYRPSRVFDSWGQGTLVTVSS
VL: B1 VL with D50H, I92A
B3: CM-32 (antibody, human IgG4 S228P, lambda, V domains shown)
VH: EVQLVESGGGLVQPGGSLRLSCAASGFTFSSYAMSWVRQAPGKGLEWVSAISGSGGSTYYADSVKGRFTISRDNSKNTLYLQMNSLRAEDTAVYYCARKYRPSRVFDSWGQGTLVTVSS
VL: B1 VL with K52H, I92A
B4: CM-36 (antibody, human IgG4 S228P, lambda, V domains shown)
VH: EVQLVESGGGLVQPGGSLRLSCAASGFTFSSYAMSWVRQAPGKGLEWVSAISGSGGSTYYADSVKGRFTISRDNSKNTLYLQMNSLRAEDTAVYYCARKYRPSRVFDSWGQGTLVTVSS
VL: B1 VL with I92V
B5: CM-35 (antibody, human IgG4 S228P, lambda, V domains shown)
VH: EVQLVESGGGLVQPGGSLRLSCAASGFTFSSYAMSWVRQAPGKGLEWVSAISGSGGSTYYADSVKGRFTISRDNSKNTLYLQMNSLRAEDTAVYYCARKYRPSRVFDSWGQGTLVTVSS
VL: B1 VL with Q88D, I92A
B6: CM-34 (antibody, human IgG4 S228P, lambda, V domains shown)
VH: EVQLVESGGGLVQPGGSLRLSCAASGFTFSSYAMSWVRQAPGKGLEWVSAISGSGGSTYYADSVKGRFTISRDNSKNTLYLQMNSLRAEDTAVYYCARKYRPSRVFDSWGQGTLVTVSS
VL: B1 VL with K52P, I92A
B7: CM-37 (antibody, human IgG4 S228P, lambda, V domains shown)
VH: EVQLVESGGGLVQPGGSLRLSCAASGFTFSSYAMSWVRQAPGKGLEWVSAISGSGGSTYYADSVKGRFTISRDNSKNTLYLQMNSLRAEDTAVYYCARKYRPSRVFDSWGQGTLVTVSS
VL: B1 VL with I92L
B8: CM-31 (antibody, human IgG4 S228P, lambda, V domains shown)
VH: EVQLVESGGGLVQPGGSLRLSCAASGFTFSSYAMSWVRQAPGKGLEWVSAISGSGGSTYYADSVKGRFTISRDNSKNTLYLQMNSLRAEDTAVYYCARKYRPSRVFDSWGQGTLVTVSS
VL: B1 VL with S51H, I92A
B9: CM-33 (antibody, human IgG4 S228P, lambda, V domains shown)
VH: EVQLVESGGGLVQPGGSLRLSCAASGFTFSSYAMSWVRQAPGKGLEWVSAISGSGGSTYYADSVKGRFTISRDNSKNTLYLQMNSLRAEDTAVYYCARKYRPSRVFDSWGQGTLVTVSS
VL: B1 VL with K52R, I92A
B10: CM-39 (antibody, human IgG4 S228P, lambda, V domains shown)
VH: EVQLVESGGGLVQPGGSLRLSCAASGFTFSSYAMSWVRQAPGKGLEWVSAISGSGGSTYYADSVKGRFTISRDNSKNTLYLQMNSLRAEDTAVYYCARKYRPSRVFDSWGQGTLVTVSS
VL: B1 VL with I92A, S94A
B11: CM-27 (antibody, human IgG4 S228P, lambda, V domains shown)
VH: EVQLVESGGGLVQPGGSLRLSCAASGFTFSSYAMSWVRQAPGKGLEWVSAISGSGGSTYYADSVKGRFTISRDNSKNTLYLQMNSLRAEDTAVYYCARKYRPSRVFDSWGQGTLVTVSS
VL: B1 VL with E49Q, I92A
B12: CM-29 (antibody, human IgG4 S228P, lambda, V domains shown)
VH: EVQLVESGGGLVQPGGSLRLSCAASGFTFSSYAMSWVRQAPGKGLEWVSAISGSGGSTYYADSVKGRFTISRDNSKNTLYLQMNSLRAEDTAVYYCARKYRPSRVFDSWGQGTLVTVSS
VL: B1 VL with D50Q, I92A
B13: CM-30 (antibody, human IgG4 S228P, lambda, V domains shown)
VH: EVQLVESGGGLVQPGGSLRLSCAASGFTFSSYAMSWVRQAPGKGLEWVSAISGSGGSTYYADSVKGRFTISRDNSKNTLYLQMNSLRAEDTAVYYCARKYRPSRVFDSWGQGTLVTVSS
VL: B1 VL with S51A, I92A
B14: Anti-S100A8/A9 monoclonal antibody (antibody, human IgG4 S228P, lambda, V domains shown)
VH: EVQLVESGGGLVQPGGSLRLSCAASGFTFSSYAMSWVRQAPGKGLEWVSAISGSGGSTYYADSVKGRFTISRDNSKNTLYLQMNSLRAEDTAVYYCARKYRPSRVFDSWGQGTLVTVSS
VL: B1 VL with I92A
notes: also called CM-1; parental antibody

The binders below were run against T1, human S100A8/A9 heterodimeric antigen, … (assay: cell-based or functional assay).

Row | Binder | IC50, inhibition of IL-6 release from hS100A8/A9-activated human PBMCs
1 | B1 | 0.084 µg/mL
2 | B2 | 1.74 µg/mL
3 | B3 | 0.536 µg/mL
4 | B4 | 0.393 µg/mL
5 | B5 | 0.655 µg/mL
6 | B6 | 1.22 µg/mL
7 | B7 | 0.335 µg/mL
8 | B8 | 0.48 µg/mL
9 | B9 | 0.452 µg/mL
10 | B10 | 0.452 µg/mL
11 | B11 | 0.253 µg/mL
12 | B12 | 2 µg/mL
13 | B13 | 0.434 µg/mL

The binders below were run against T2, S100A1 (assay: not given).

Row | Binder | binding result
14 | B14 | no binding (tested: 20 µg/mL)

What follows are binders tested against plague (UniProt P26948 22-170) (assay: not given).
Sequence of plague (P26948 22-170): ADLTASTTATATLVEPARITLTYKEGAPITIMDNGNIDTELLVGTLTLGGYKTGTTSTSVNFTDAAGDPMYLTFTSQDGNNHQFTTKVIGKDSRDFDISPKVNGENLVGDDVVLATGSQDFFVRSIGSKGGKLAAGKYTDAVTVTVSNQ

Row | Binder | binding result
15 | B14 | no binding (tested: 20 µg/mL)

What follows are binders tested against T1, human S100A8/A9 heterodimeric antigen, … (assay: not given).

Row | Binder | Kd
16 | B14 | 8.95 nM

Each binder was assayed against monkey S100A8/A9 heterodimeric antigen (cS100A8/A9) (monkey) (assay: not given).

Row | Binder | Kd
17 | B14 | 22.8 nM
